In patent publication US20150307867:

Tests used:
GATA1 (Homo sapiens) = GATA1 (Homo sapiens) (UniProt P15976); settings: ChIP-pyrosequencing, heterozygous primary human erythroblasts; input alleles balanced; about 60:40 G:T
TAL1 (Homo sapiens) = TAL1 (Homo sapiens) (UniProt P17542); settings: ChIP-pyrosequencing, heterozygous primary human erythroblasts; input alleles balanced; about 60:40 G:T
Sequence of TAL1 (Homo sapiens) (P17542 whole entry): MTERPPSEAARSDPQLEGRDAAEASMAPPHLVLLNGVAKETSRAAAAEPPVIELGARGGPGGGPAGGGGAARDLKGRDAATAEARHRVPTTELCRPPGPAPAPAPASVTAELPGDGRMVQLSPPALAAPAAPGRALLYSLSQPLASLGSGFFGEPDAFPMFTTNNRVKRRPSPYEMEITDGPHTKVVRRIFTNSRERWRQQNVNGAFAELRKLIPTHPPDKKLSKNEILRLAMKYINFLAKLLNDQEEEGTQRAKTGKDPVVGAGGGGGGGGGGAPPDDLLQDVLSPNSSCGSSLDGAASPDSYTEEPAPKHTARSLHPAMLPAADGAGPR

Sequence of GATA1 (Homo sapiens) (P15976 whole entry): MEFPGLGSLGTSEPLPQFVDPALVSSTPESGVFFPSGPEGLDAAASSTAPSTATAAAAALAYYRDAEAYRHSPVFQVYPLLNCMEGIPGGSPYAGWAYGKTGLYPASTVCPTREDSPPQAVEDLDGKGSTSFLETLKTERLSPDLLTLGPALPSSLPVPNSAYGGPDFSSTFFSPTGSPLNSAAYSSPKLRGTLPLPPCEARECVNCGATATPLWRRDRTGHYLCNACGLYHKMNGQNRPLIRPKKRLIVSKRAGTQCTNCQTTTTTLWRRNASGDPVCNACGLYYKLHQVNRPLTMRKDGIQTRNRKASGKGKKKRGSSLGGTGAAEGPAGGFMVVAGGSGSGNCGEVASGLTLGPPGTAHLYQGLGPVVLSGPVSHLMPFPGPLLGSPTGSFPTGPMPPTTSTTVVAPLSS

| Substance | binding signal (% of alleles in ChIP) (GATA1 (Homo sapiens)) | binding signal (% of alleles in ChIP) (TAL1 (Homo sapiens)) |
| --- | --- | --- |
| BCL11A DHS +62 rs1427407 T-allele | 40 | 40 |
| CTGNNNNNNNNNGATA (double strand) [BCL11A DHS +62 rs1427407 G-allele (half-E-box/GATA motif)] | 60 | 60 |
